From patent publication US20220040297A1 (Chugai, published 2022)

Tests used:
CD3ε homodimer protein [1] = target: T1, CD3ε homodimer protein (human, UniProt P07766 23-126, limits assumed, sulfo-tag or biotin label in some ECL assays); test: SPR, CD3ε homodimer on chip;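 also: biacore SPR with antibody variants flowed as analyte over amine-coupled CD3ε homodimer on a CM chip, bound amount of each single-residue H chain variant over that of parent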
T1 construct: also called human CD3ε homodimer protein; CD3 (CD3ε)
T1 sequence (P07766 23-126 limits assumed): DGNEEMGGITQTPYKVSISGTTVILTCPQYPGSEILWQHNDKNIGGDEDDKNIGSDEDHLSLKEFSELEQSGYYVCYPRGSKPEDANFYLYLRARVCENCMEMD
Method: An appropriate amount of CD3ε homodimer protein was immobilized onto Sensor chip CM4 (GE Healthcare Japan Corp.) by the amine coupling method. Then, the antibody having an appropriate concentration was injected thereto as an analyte and allowed to interact with the CD3ε homodimer protein on the sensor chip. Then, the sensor chip was regenerated by the injection of 10 mmol/L glycine-HCl (pH 1.5). The assay was conducted at 25° C., and HBS-EP+ (GE Healthcare Japan Corp.) was used as a running buffer. […] Each parameter was calculated using Biacore T200 Evaluation Software (GE Healthcare Japan Corp.).
Specifically, when the amount of the antibody comprising CE115HA000 bound was defined as X and the amount of the H chain one-amino acid altered form bound was defined as Y, a value of Z (ratio of amounts bound)=Y/X was used.

CD3ε homodimer protein [2] = target: CD3ε homodimer protein (human, UniProt P07766 23-126, limits assumed); test: SPR, immobilized CD3ε homodimer;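 also: biacore T200 surface plasmon resonance at 25 °C, antibody variants flowed as analytes over amine-coupled CD3ε homodimer on a CM4 chip, variant binding amount divided by that of GLS3000 antibody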
CD3ε homodimer protein (human, UniProt P07766 23-126, limits assumed), sequence (P07766 23-126 limits assumed): as above

ratio of amounts bound vs CE115HA000 (CD3ε homodimer protein [1]) | ratio of amounts bound (vs GLS3000) (CD3ε homodimer protein [2]) | Binder
0.52 |  | CE115HA000 A52aV (antibody, name in Kabat numbering, V domains shown) VH: QVQLVESGGGVVQPGRSLRLSCAASGFTFSNAWMHWVRQAPGKGLEWVAQIKVKSNNYATYYAESVKGRFTISRDDSKNSLYLQMNSLKTEDTAVYYCRYVHYGAYYGVDAWGQGTTVTVSS VL: DIVMTQSPLSLPVTPGEPASISCRSSQSLVHSNRNTYLHWYQQKPGQAPRLLIYKVSNRFSGVPDRFSGSGSGTDFTLKISRVEAEDVGVYYCGQGTQVPYTFGQGTKLEIK
 | 1.17 | GLS3000 Y96F (antibody, name in Kabat numbering, V domains shown, one-arm format as m2) VH: QVQLVESGGGVVQPGRSLRLSCAASGFTFSNAWMHWVRQAPGKGLEWVAQIKAKSNNYATYYAESVKGRFTISRDDSKNSLYLQMNSLKTEDTAVYYCRYVHYGAYYGVDAWGQGTTVTVSS VL: DIVMTQSPLSLPVTPGEPASISCRSSQSLVHSNRNTYLHWYQQKPGQAPRLLIYKVSNRFSGVPDRFSGSGSGTDFTLKISRVEAEDVGVYYCGQGTQVPFTFGQGTKLEIK
0.61 |  | CE115HA000 A56G (antibody, name in Kabat numbering, V domains shown) VH: QVQLVESGGGVVQPGRSLRLSCAASGFTFSNAWMHWVRQAPGKGLEWVAQIKAKSNNYGTYYAESVKGRFTISRDDSKNSLYLQMNSLKTEDTAVYYCRYVHYGAYYGVDAWGQGTTVTVSS VL: DIVMTQSPLSLPVTPGEPASISCRSSQSLVHSNRNTYLHWYQQKPGQAPRLLIYKVSNRFSGVPDRFSGSGSGTDFTLKISRVEAEDVGVYYCGQGTQVPYTFGQGTKLEIK
0.15 |  | CE115HA000 A52aP (antibody, name in Kabat numbering, V domains shown) VH: QVQLVESGGGVVQPGRSLRLSCAASGFTFSNAWMHWVRQAPGKGLEWVAQIKPKSNNYATYYAESVKGRFTISRDDSKNSLYLQMNSLKTEDTAVYYCRYVHYGAYYGVDAWGQGTTVTVSS VL: DIVMTQSPLSLPVTPGEPASISCRSSQSLVHSNRNTYLHWYQQKPGQAPRLLIYKVSNRFSGVPDRFSGSGSGTDFTLKISRVEAEDVGVYYCGQGTQVPYTFGQGTKLEIK
1.34 |  | CE115HA000 A52aD (antibody, name in Kabat numbering, V domains shown) VH: QVQLVESGGGVVQPGRSLRLSCAASGFTFSNAWMHWVRQAPGKGLEWVAQIKDKSNNYATYYAESVKGRFTISRDDSKNSLYLQMNSLKTEDTAVYYCRYVHYGAYYGVDAWGQGTTVTVSS VL: DIVMTQSPLSLPVTPGEPASISCRSSQSLVHSNRNTYLHWYQQKPGQAPRLLIYKVSNRFSGVPDRFSGSGSGTDFTLKISRVEAEDVGVYYCGQGTQVPYTFGQGTKLEIK
0.51 |  | CE115HA000 A56D (antibody, name in Kabat numbering, V domains shown) VH: QVQLVESGGGVVQPGRSLRLSCAASGFTFSNAWMHWVRQAPGKGLEWVAQIKAKSNNYDTYYAESVKGRFTISRDDSKNSLYLQMNSLKTEDTAVYYCRYVHYGAYYGVDAWGQGTTVTVSS VL: DIVMTQSPLSLPVTPGEPASISCRSSQSLVHSNRNTYLHWYQQKPGQAPRLLIYKVSNRFSGVPDRFSGSGSGTDFTLKISRVEAEDVGVYYCGQGTQVPYTFGQGTKLEIK
 | 0.17 | GLS3000 Y96E (antibody, name in Kabat numbering, V domains shown, one-arm format as m2) VH: QVQLVESGGGVVQPGRSLRLSCAASGFTFSNAWMHWVRQAPGKGLEWVAQIKAKSNNYATYYAESVKGRFTISRDDSKNSLYLQMNSLKTEDTAVYYCRYVHYGAYYGVDAWGQGTTVTVSS VL: DIVMTQSPLSLPVTPGEPASISCRSSQSLVHSNRNTYLHWYQQKPGQAPRLLIYKVSNRFSGVPDRFSGSGSGTDFTLKISRVEAEDVGVYYCGQGTQVPETFGQGTKLEIK

The remaining lines, values behind:

Binder | ratio of amounts bound vs CE115HA000 (CD3ε homodimer protein [1]) | ratio of amounts bound (vs GLS3000) (CD3ε homodimer protein [2])
CE115HA000 H35A (antibody, name in Kabat numbering, V domains shown) VH: QVQLVESGGGVVQPGRSLRLSCAASGFTFSNAWMAWVRQAPGKGLEWVAQIKAKSNNYATYYAESVKGRFTISRDDSKNSLYLQMNSLKTEDTAVYYCRYVHYGAYYGVDAWGQGTTVTVSS VL: DIVMTQSPLSLPVTPGEPASISCRSSQSLVHSNRNTYLHWYQQKPGQAPRLLIYKVSNRFSGVPDRFSGSGSGTDFTLKISRVEAEDVGVYYCGQGTQVPYTFGQGTKLEIK | 0.17 | 
CE115HA000 A52aG (antibody, name in Kabat numbering, V domains shown) VH: QVQLVESGGGVVQPGRSLRLSCAASGFTFSNAWMHWVRQAPGKGLEWVAQIKGKSNNYATYYAESVKGRFTISRDDSKNSLYLQMNSLKTEDTAVYYCRYVHYGAYYGVDAWGQGTTVTVSS VL: DIVMTQSPLSLPVTPGEPASISCRSSQSLVHSNRNTYLHWYQQKPGQAPRLLIYKVSNRFSGVPDRFSGSGSGTDFTLKISRVEAEDVGVYYCGQGTQVPYTFGQGTKLEIK | 0.81 | 
CE115HA000 A56Y (antibody, name in Kabat numbering, V domains shown) VH: QVQLVESGGGVVQPGRSLRLSCAASGFTFSNAWMHWVRQAPGKGLEWVAQIKAKSNNYYTYYAESVKGRFTISRDDSKNSLYLQMNSLKTEDTAVYYCRYVHYGAYYGVDAWGQGTTVTVSS VL: DIVMTQSPLSLPVTPGEPASISCRSSQSLVHSNRNTYLHWYQQKPGQAPRLLIYKVSNRFSGVPDRFSGSGSGTDFTLKISRVEAEDVGVYYCGQGTQVPYTFGQGTKLEIK | 0.66 | 
CE115HA000 A56K (antibody, name in Kabat numbering, V domains shown) VH: QVQLVESGGGVVQPGRSLRLSCAASGFTFSNAWMHWVRQAPGKGLEWVAQIKAKSNNYKTYYAESVKGRFTISRDDSKNSLYLQMNSLKTEDTAVYYCRYVHYGAYYGVDAWGQGTTVTVSS VL: DIVMTQSPLSLPVTPGEPASISCRSSQSLVHSNRNTYLHWYQQKPGQAPRLLIYKVSNRFSGVPDRFSGSGSGTDFTLKISRVEAEDVGVYYCGQGTQVPYTFGQGTKLEIK | 1.35 | 
CE115HA000 A56L (antibody, name in Kabat numbering, V domains shown) VH: QVQLVESGGGVVQPGRSLRLSCAASGFTFSNAWMHWVRQAPGKGLEWVAQIKAKSNNYLTYYAESVKGRFTISRDDSKNSLYLQMNSLKTEDTAVYYCRYVHYGAYYGVDAWGQGTTVTVSS VL: DIVMTQSPLSLPVTPGEPASISCRSSQSLVHSNRNTYLHWYQQKPGQAPRLLIYKVSNRFSGVPDRFSGSGSGTDFTLKISRVEAEDVGVYYCGQGTQVPYTFGQGTKLEIK | 0.8 | 
CE115HA000 A32Y (antibody, name in Kabat numbering, V domains shown) VH: QVQLVESGGGVVQPGRSLRLSCAASGFTFSNYWMHWVRQAPGKGLEWVAQIKAKSNNYATYYAESVKGRFTISRDDSKNSLYLQMNSLKTEDTAVYYCRYVHYGAYYGVDAWGQGTTVTVSS VL: DIVMTQSPLSLPVTPGEPASISCRSSQSLVHSNRNTYLHWYQQKPGQAPRLLIYKVSNRFSGVPDRFSGSGSGTDFTLKISRVEAEDVGVYYCGQGTQVPYTFGQGTKLEIK | 0.33 | 
GLS3000 Y96D (antibody, name in Kabat numbering, V domains shown, one-arm format as m2) VH: QVQLVESGGGVVQPGRSLRLSCAASGFTFSNAWMHWVRQAPGKGLEWVAQIKAKSNNYATYYAESVKGRFTISRDDSKNSLYLQMNSLKTEDTAVYYCRYVHYGAYYGVDAWGQGTTVTVSS VL: DIVMTQSPLSLPVTPGEPASISCRSSQSLVHSNRNTYLHWYQQKPGQAPRLLIYKVSNRFSGVPDRFSGSGSGTDFTLKISRVEAEDVGVYYCGQGTQVPDTFGQGTKLEIK |  | 0.17
CE115HA000 A56N (antibody, name in Kabat numbering, V domains shown) VH: QVQLVESGGGVVQPGRSLRLSCAASGFTFSNAWMHWVRQAPGKGLEWVAQIKAKSNNYNTYYAESVKGRFTISRDDSKNSLYLQMNSLKTEDTAVYYCRYVHYGAYYGVDAWGQGTTVTVSS VL: DIVMTQSPLSLPVTPGEPASISCRSSQSLVHSNRNTYLHWYQQKPGQAPRLLIYKVSNRFSGVPDRFSGSGSGTDFTLKISRVEAEDVGVYYCGQGTQVPYTFGQGTKLEIK | 0.87 | 
CE115HA000 A60D (antibody, name in Kabat numbering, V domains shown) VH: QVQLVESGGGVVQPGRSLRLSCAASGFTFSNAWMHWVRQAPGKGLEWVAQIKAKSNNYATYYDESVKGRFTISRDDSKNSLYLQMNSLKTEDTAVYYCRYVHYGAYYGVDAWGQGTTVTVSS VL: DIVMTQSPLSLPVTPGEPASISCRSSQSLVHSNRNTYLHWYQQKPGQAPRLLIYKVSNRFSGVPDRFSGSGSGTDFTLKISRVEAEDVGVYYCGQGTQVPYTFGQGTKLEIK | 0.99 | 
CE115HA000 A56Q (antibody, name in Kabat numbering, V domains shown) VH: QVQLVESGGGVVQPGRSLRLSCAASGFTFSNAWMHWVRQAPGKGLEWVAQIKAKSNNYQTYYAESVKGRFTISRDDSKNSLYLQMNSLKTEDTAVYYCRYVHYGAYYGVDAWGQGTTVTVSS VL: DIVMTQSPLSLPVTPGEPASISCRSSQSLVHSNRNTYLHWYQQKPGQAPRLLIYKVSNRFSGVPDRFSGSGSGTDFTLKISRVEAEDVGVYYCGQGTQVPYTFGQGTKLEIK | 0.76 | 
CE115HA000 A52aE (antibody, name in Kabat numbering, V domains shown) VH: QVQLVESGGGVVQPGRSLRLSCAASGFTFSNAWMHWVRQAPGKGLEWVAQIKEKSNNYATYYAESVKGRFTISRDDSKNSLYLQMNSLKTEDTAVYYCRYVHYGAYYGVDAWGQGTTVTVSS VL: DIVMTQSPLSLPVTPGEPASISCRSSQSLVHSNRNTYLHWYQQKPGQAPRLLIYKVSNRFSGVPDRFSGSGSGTDFTLKISRVEAEDVGVYYCGQGTQVPYTFGQGTKLEIK | 0.57 | 
GLS3000 Y96L (antibody, name in Kabat numbering, V domains shown, one-arm format as m2) VH: QVQLVESGGGVVQPGRSLRLSCAASGFTFSNAWMHWVRQAPGKGLEWVAQIKAKSNNYATYYAESVKGRFTISRDDSKNSLYLQMNSLKTEDTAVYYCRYVHYGAYYGVDAWGQGTTVTVSS VL: DIVMTQSPLSLPVTPGEPASISCRSSQSLVHSNRNTYLHWYQQKPGQAPRLLIYKVSNRFSGVPDRFSGSGSGTDFTLKISRVEAEDVGVYYCGQGTQVPLTFGQGTKLEIK |  | 0.32
CE115HA000 A52aS (antibody, name in Kabat numbering, V domains shown) VH: QVQLVESGGGVVQPGRSLRLSCAASGFTFSNAWMHWVRQAPGKGLEWVAQIKSKSNNYATYYAESVKGRFTISRDDSKNSLYLQMNSLKTEDTAVYYCRYVHYGAYYGVDAWGQGTTVTVSS VL: DIVMTQSPLSLPVTPGEPASISCRSSQSLVHSNRNTYLHWYQQKPGQAPRLLIYKVSNRFSGVPDRFSGSGSGTDFTLKISRVEAEDVGVYYCGQGTQVPYTFGQGTKLEIK | 1.05 | 
GLS3000 Y96H (antibody, name in Kabat numbering, V domains shown, one-arm format as m2) VH: QVQLVESGGGVVQPGRSLRLSCAASGFTFSNAWMHWVRQAPGKGLEWVAQIKAKSNNYATYYAESVKGRFTISRDDSKNSLYLQMNSLKTEDTAVYYCRYVHYGAYYGVDAWGQGTTVTVSS VL: DIVMTQSPLSLPVTPGEPASISCRSSQSLVHSNRNTYLHWYQQKPGQAPRLLIYKVSNRFSGVPDRFSGSGSGTDFTLKISRVEAEDVGVYYCGQGTQVPHTFGQGTKLEIK |  | 0.23
